From patent US20240093191A1, “COMPOSITIONS AND METHODS FOR TREATING DISEASE ASSOCIATED WITH DUX4 OVEREXPRESSION” (RESEARCH INSTITUTE AT NATIONWIDE CHILDREN'S HOSPITAL, priority 2021, published 2024)
Numbering of substitutions follows the chain as printed.

B1: U6.mi405A: mi405 construct with altered flanking sequences (nucleic acid)
DNA: ACGCCGCCATCTCTAGGCCCGCGCCGGCCCCCTCGCACAGACTTGTGGGAGAAGCTCGGCTACTCCCCTGCCCCGGTTAATTTGCATATAATATTTCCTAGTAACTATAGAGGCTTAATGTGCGATAAAAGACAGATAATCTGTTCTTTTTAATACTAGCTACATTTTACATGATAGGCTTGGATTTCTATAAGAGATACAAATACTAAATTATTATTTTAAAAAACAGCACAAAAGGAAACTCACCCTAACTGTAAAGTAATTGTGTGTTTTGAGACTATAAATATCCCTTGGAGAAAAGCCTTGTTTGACCGTTTAAACTCGAGTGAGCGATCCAGGATTCAGATCTGGTTTCTGTAAAGCCACAGATGGGAAACCAGATCTGAATCCTGGACTGCCTACTAGAGCGGCCGCCACTTTTTT
B2: U6.mi405D: mi405 construct with altered flanking sequences (nucleic acid)
DNA: ACGCCGCCATCTCTAGGCCCGCGCCGGCCCCCTCGCACAGACTTGTGGGAGAAGCTCGGCTACTCCCCTGCCCCGGTTAATTTGCATATAATATTTCCTAGTAACTATAGAGGCTTAATGTGCGATAAAAGACAGATAATCTGTTCTTTTTAATACTAGCTACATTTTACATGATAGGCTTGGATTTCTATAAGAGATACAAATACTAAATTATTATTTTAAAAAACAGCACAAAAGGAAACTCACCCTAACTGTAAAGTAATTGTGTGTTTTGAGACTATAAATATCCCTTGGAGAAAAGCCTTGTTTGACTCGAGTGAGCGATCCAGGATTCAGATCTGGTTTCTGTAAAGCCACAGATGGGAAACCAGATCTGAATCCTGGACTGCCTACTAGAGCGGCCGCCACTTTTTT
B3: U6.mi405E: mi405 construct with altered flanking sequences (nucleic acid)
DNA: B2 DNA with G401C, C402A, C408G
B4: U6.mi405B: mi405 construct with altered flanking sequences (nucleic acid)
DNA: ACGCCGCCATCTCTAGGCCCGCGCCGGCCCCCTCGCACAGACTTGTGGGAGAAGCTCGGCTACTCCCCTGCCCCGGTTAATTTGCATATAATATTTCCTAGTAACTATAGAGGCTTAATGTGCGATAAAAGACAGATAATCTGTTCTTTTTAATACTAGCTACATTTTACATGATAGGCTTGGATTTCTATAAGAGATACAAATACTAAATTATTATTTTAAAAAACAGCACAAAAGGAAACTCACCCTAACTGTAAAGTAATTGTGTGTTTTGAGACTATAAATATCCCTTGGAGAAAAGCCTTGTTTGACCGTTTAAACTCGAGTGAGCGATCCAGGATTCAGATCTGGTTTCTGTAAAGCCACAGATGGGAAACCAGATCTGAATCCTGGACTGCCTACTAGATTTTTT
B5: U6.mi405C: mi405 construct with altered flanking sequences (nucleic acid)
DNA: ACGCCGCCATCTCTAGGCCCGCGCCGGCCCCCTCGCACAGACTTGTGGGAGAAGCTCGGCTACTCCCCTGCCCCGGTTAATTTGCATATAATATTTCCTAGTAACTATAGAGGCTTAATGTGCGATAAAAGACAGATAATCTGTTCTTTTTAATACTAGCTACATTTTACATGATAGGCTTGGATTTCTATAAGAGATACAAATACTAAATTATTATTTTAAAAAACAGCACAAAAGGAAACTCACCCTAACTGTAAAGTAATTGTGTGTTTTGAGACTATAAATATCCCTTGGAGAAAAGCCTTGTTTGCTCGAGTGAGCGATCCAGGATTCAGATCTGGTTTCTGTAAAGCCACAGATGGGAAACCAGATCTGAATCCTGGACTGCCTACTAGAGCGGCCGCCACTTTTTT

tested on: mi405 mature sequence; assay: QPCR of mature mi405 (standard TaqMan cDNA synthesis) in HEK293 cells; format: cell-based, human; conditions: 24 h after transfection
Protocol: TaqMan Gene Expression Assay. QRT-PCR was carried out to quantify the expression of pri-mir-675, mir-675-5p and mi405 using TaqMan probes (ThermoFisher Scientific). Experiments were started by eliminating genomic DNA from the RNA preparations, and then cDNA was generated using the High-Capacity cDNA Reverse Transcription Kit (Applied Biosystems) following manufacturer's instructions. Within the same cDNA reaction, 1×RT random hexamer primers were used to generate the cDNA for RPL13A, used as a reference gene, and for pri-mir-675. To generate the cDNA for mir-675, the RT mir-675 reverse primer provided by ThermoFisher Scientific was used. For mi405, the mi405 qPCR protocol was done as it was previously described [Wallace et al., Mol. Ther. Methods Clin. Dev. 8: 121-30 (2018)]. To quantify mir-675 and mi405 levels, RNA was extracted using the total RNA protocol for the mirVana miRNA Isolation Kit (Ambion) from HEK293 cells. cDNA was generated using the High-Capacity cDNA Reverse Transcription Kit (Applied Biosystems) using a mix of random hexamer primers and specific reverse primer for pri-mir-675 and mir-675-5p. For mi405, 200 nM of the stem-loop forming primer (5′-[…]-3′) (SEQ ID NO: 144) was also used for the RT step. A custom TaqMan assay (Applied Biosystems) including 1.5 μM of Forward primer (5′-[…]-3′) (SEQ ID NO: 145), 0.7 μM of Reverse primer (5′-GTGCAGGGTCCGAGGT-3′) (SEQ ID NO: 146), and 0.2 μM of mi405 probe (5′-6FAM-ATACGACGTCCAGGAT-3′) (SEQ ID NO: 147) was then run using the CFX Connect Real Time system apparatus (Bio-Rad). RPL13A (Mm02526700_g1; Applied Biosystems) served as the reference gene. The TaqMan gene expression assay consisted of using the TaqMan Gene Expression Master mix and TaqMan probes purchased from ThermoFisher Scientific. 1× of probe was mixed with 1× of the TaqMan Gene Expression Master mix (ThermoFisher Scientific), and with 20 ng of cDNA. The mir-675- and mi405-specific primers and probes were designed to quantify only the mir-675-5p and mi405 mature sequence (see TaqMan Gene Expression Master mix protocol).
Apart from the effect on the inhibition efficiency of mi405, the effect of the flanking sequences on the expression of the miRNA also was tested. Therefore, the expression of the processed mature mi405 sequences was quantified using the standard and advanced TaqMan cDNA synthesis reaction. In the former reaction, a reverse primer detects the mature mi405 sequence following a stem-loop primer-based small RNA detection principle (ThermoFisher Scientific) (Jung et al., RNA (2013) 19: 1-10). The amplification and quantification steps were then performed using a standard TaqMan probe specific to mi405 that base pairs at the junction between the mi405 mature sequence and the reverse primer sequence (FIG. 6A). […] In the TaqMan advanced cDNA synthesis reaction, the mature sequence is extended through ligation of an adaptor sequence at the 5′ end and through the enzymatic addition of a polyA tail at the 3′ end of the mature mi405 sequence. The amplification and quantification steps were then performed using a TaqMan advanced probe specific to mi405 that normally base pairs with the 3′ end of the mature miRNA and with part of the adaptor sequence. Here, an additional TaqMan advanced probe (embedded probe) that only base pairs with the mature sequence of mi405 (FIG. 6B) was used. As a result, following TaqMan advanced cDNA synthesis reaction, droplet digital PCR (ddPCR) was performed to quantify mi405, mi405F, mi405B, mi405C, mi405G and mi405H expression levels. For this, TaqMan advanced embedded and overlapped mi405 probes (FIG. 6B) were used.

Row | Molecule | levels of mature mi405 sequence compared to U6.mi405
1 | B1 | greater or higher with the difference not being statistically significant
2 | B2 | greater or higher with the difference not being statistically significant
3 | B3 | greater or higher with the difference not being statistically significant

same assay, conditions: 24 h after transfection, normalized to RPL13A

Row | Molecule | reduction of mature mi405 sequence expression relative to U6.mi405 [%]
4 | B4 | 71±9
5 | B5 | 63±27

tested on: DUX4 ORF (RenLuc-DUX4 ORF); assay: Dual-luciferase assay, RenLuc-DUX4 ORF reporter co-transfected with miDUX4 plasmids in HEK293 cells; format: cell-based, human; conditions: DUX4:mi405 molar ratio 2 to 1; HEK293; 24 h; normalized to U6.miGFP
Protocol: Dual Luciferase Assay. (See also FIGS. 1A, 3A-B, 4A-B, 5B, and 16B-C.) This assay was performed as previously described by Wallace et al. (Mol. Ther. Methods Clin. Dev. 8: 121-30 (2018)) and following the dual-luciferase reporter assay system (Promega) protocol with some modifications. All plasmid constructs had the psiCheck2 dual luciferase reporter plasmid (Promega) as backbone that contains separate Renilla and Firefly luciferase genes, where the former contains the various target sequences used in the experiments of the disclosure, and the latter serves as a transfection normalizer (control). All DUX4 and control sequences were cloned downstream of the Renilla luciferase stop codon, serving as a 3′UTR. HEK293 cells were pre-plated 24h before transfection. Cells were then co-transfected with the luciferase DUX4 reporter and individual microRNA expression plasmids in an increasing luciferase DUX4 reporter:miRNA molar ratio using Lipofectamine 2000 (Invitrogen). Luciferase activity was measured 24h or 48h after transfection. DUX4 gene silencing was determined as previously described [Wallace et al., Mol. Ther. Methods Clin. Dev. 8: 121-30 (2018)]. Triplicate data were averaged per experiment, and individual experiments were performed 3 times. Results were reported as the average ratio of Renilla to Firefly luciferase activity±SEM for all combined experiments.
Accordingly, two new mi405 constructs, i.e., mi405F and mi405NF, were designed. […] To assess the inhibition efficiency of the three mi405 constructs, a dual-luciferase assay and western blot analysis, similar to what was described for mir-675, were carried out. In the dual-luciferase assay, U6.mi405, U6.mi405F, or U6.mi405NF was co-transfected into HEK293 cells along with the RenLuc-DUX4 ORF (a construct expressing the open reading frame of DUX4 as a 3′UTR sequence of Renilla Luciferase). 24 h after transfection, U6.mi405, U6.mi405F, and U6.mi405NF reduced the relative Renilla luciferase activity by 85±1%, 89±1%, and 66±1% (P<0.0001, ANOVA, N=3), respectively, when tested against the RenLuc-DUX4 ORF construct.

Row | Molecule | reduction of Renilla luciferase activity [%]
6 | B4 | 25±3
7 | B1 | 72±1
8 | B5 | 64±1
9 | B2 | 71±1
10 | B3 | 73±1

tested on: mir-675; assay: not given; conditions: published gene expression studies; cited from earlier work

Row | Molecule | mir-675 expression
11 | estrogen | mir-675 was induced
12 | bleomycin | upregulated mir-675 expression
